Assay [1] concerns human β2GPI-dependent antiphospholipid antibody. Nature of the assay: Micropanning of mutant domain 1 phage, patient antibodies. It is filed as binding. The conditions noted are these: Table 7B.
In another assay the test system is rabbit anti-human β2GPI. Put plainly: Micropanning of mutant domain 1 phage, rabbit antibody. It is filed as binding. Also on record: key: 0 (<10 colonies) to 4+ (confluent) semiquantitative colony score. The conditions noted are these: Table 7B. The procedure:
Error prone PCR was carried out as follows. Domain 1 of human β2GPI was amplified by PCR under conditions that enhance the error rate of Taq polymerase. The primers were such that amino acids 1-64 were amplified. A Sfc 1 restriction site was incorporated as part of amino acid 1. At the 3′ end a Sal 1 restriction site was incorporated after amino acid 64. The PCR reaction was done as described by Leung et al. (1989) Technique 1:11, using 0.25 mM MnCl2. The PCR product was digested with Sfc 1 and Sal 1 and cloned into fd-tet-DOG2 that had been digested with Apal 1 and Sal 1. This positions domain 1 at the N-terminus of pill immediately after the pill signal sequence. The ligation reaction was electroporated in E. coli K91. Phage were harvested and titered by standard methods. Resulting phage clones were assayed using a micropanning technique.
Immulon type 2 plates were coated with protein G. Protein G was prepared at 5 μg/mL in 0.1 M NaHCO3 and 100 μL per well was added to the wells of microtitration plates and incubated overnight at 4° C. After discarding excess protein G solution from plates, each well was blocked with 200 μL 2YT for 1 hour at RT with agitation on an oscillating platform. Tris-buffered saline, pH 7.4/0.5% Tween 20 (TBS/Tween), was used with an automatic plate washer to wash the wells 4 times with 200 μL. One hundred μL human β2GPI-dependent antiphospholipid 6626, 6501, 6701, rabbit β2GPI-dependent antiphospholipid, or control normal IgG, diluted to 2.5 μg/mL with 2YT, was added to washed wells. The plate was incubated for 1 hour at room temperature on a rotating platform.
Phage to be tested by micropanning were obtained from the agar plates generated by biopanning. Each clone to be tested was transferred using sterile toothpicks to a separate well of a round-bottom 96-well microtitration plate (Corning, Corning, N.Y.) containing 200 μL 2YT/Tet per well and cultured overnight at 30° C. Following overnight incubation, phage cultures were centrifuged using a microtitration plate holder at 1300×g for 10 minutes at room temperature. Supernatants constituted the source of “neat” phage. The neat phage were diluted 1: 100-1:1000 and 100 μL was added to the plate containing protein G-bound β2GPI-dependent antiphospholipid antibody-6501 and normal IgG prepared as described above. The incubation of dilute phage with aPL antibody or control IgG was carried out for 2 hours at room temperature on a flat rotator. After 9 washes with TBS/Tween in an automated plate washer, the IgG-bound phage was eluted with 20 μL of 0.2 N HCl-glycine/0.1% BSA, pH 2.2. The elution incubation continued for 10 minutes at RT, during which time a new Corning microtitration plate was prepared containing 20 μL of freshly starved E. coli per well and kept chilled. One hundred forty μL of 29 mM Tris was added to the plate containing the phage eluates in order to neutralize the pH, following which 20 μL of phage suspension was transferred from each well to the corresponding well in the plate containing starved E. coli. After a 10 minute incubation at 37° C., 200 μL 2YT was added and incubation carried out an additional 30 minutes at 37° C. Using multichannel pipettors, 8 μL from each well was spotted on a large 2YT/Tet agar plate while retaining the original 8×12 well pattern and orientation from the last microtitration plate. After allowing the spots to dry for 30 minutes, the plate was incubated overnight at 30° C. The following day, colonies were semiquantitatively scored from 0 to 4+, with 0 symbolizing <10 colonies; 1+=10-30; 2+=30 colonies to 70% confluent; 3+=70%-90% confluent; 4+=confluent.
For Table 7A, the rabbit anti-human β2GPI was performed on two separate occasions. Mutations are listed with the original amino acid, the position number, and the identity of the amino acid at that position in the mutant. […] Non-mutated domain 1 have a score of 3+, while domain 5 phage gave a score of −. Silent mutations are not shown. […]

B1: 4G1: phage clone, domain 1 mutant S31P (protein)
chain: GRTCPKPDDLPFSTVVPLKTFYEPGEEITYPCKPGYVSRGGMRKFICPLTGLWPINTLKCTPRV
For the molecule B1, the Micropan score in assay [1] (antibody 6226), in assay [1] (antibody 6501), in assay [1] (antibody 6632), in assay [1] (antibody 6644), in assay [1] (antibody 6701) and in assay [1] (antibody 7008) was 2 throughout. In the assay with rabbit anti-human β2GPI (5th column), this molecule yielded a Micropan score of 4.

B2: SC3: phage clone, domain 1 mutant F45S (protein)
chain: GRTCPKPDDLPFSTVVPLKTFYEPGEEITYSCKPGYVSRGGMRKSICPLTGLWPINTLKCTPRV
For the molecule B2, the Micropan score in assay [1] (antibody 6226) was 3; in assay [1] (antibody 6501), 1; in assay [1] (antibody 6632) it was 4; in assay [1] (antibody 6644), 4; in assay [1] (antibody 6701), 0 (0 symbolizing <10 colonies); in assay [1] (antibody 7008), 4. In addition, the Micropan score in the assay with rabbit anti-human β2GPI (1st column), in the assay with rabbit anti-human β2GPI (2nd column), in the assay with rabbit anti-human β2GPI (3rd column) and in the assay with rabbit anti-human β2GPI (4th column) was 4 each time.

B3: 3F6: phage clone, domain 1 mutant K44E (protein)
chain: GRTCPKPDDLPFSTVVPLKTFYEPGEEITYSCKPGYVSRGGMREFICPLTGLWPINTLKCTPRV
Turning to B3, the Micropan score is 0 (0 symbolizing <10 colonies) in assay [1] (antibody 6226); 0 (0 symbolizing <10 colonies) in assay [1] (antibody 6501); 0 (0 symbolizing <10 colonies) in assay [1] (antibody 6632); 1 in assay [1] (antibody 6644); 0 (0 symbolizing <10 colonies) in assay [1] (antibody 6701); 2 in assay [1] (antibody 7008). Besides, the Micropan score in the assay with rabbit anti-human β2GPI (5th column) is reported as 4.

B4: 4B12: phage clone, domain 1 mutant T50P (protein)
chain: GRTCPKPDDLPFSTVVPLKTFYEPGEEITYSCKPGYVSRGGMRKFICPLPGLWPINTLKCTPRV
For the molecule B4, the Micropan score in assay [1] (antibody 6226), in assay [1] (antibody 6501), in assay [1] (antibody 6632), in assay [1] (antibody 6644), in assay [1] (antibody 6701) and in assay [1] (antibody 7008) was 1 each time. The molecule also gave a Micropan score in the assay on rabbit anti-human β2GPI (5th column) of 4.

B5: SH1: phage clone, domain 1 mutant K33E (protein)
chain: GRTCPKPDDLPFSTVVPLKTFYEPGEEITYSCEPGYVSRGGMRKFICPLTGLWPINTLKCTPRV
With B5, the Micropan score in assay [1] (antibody 6226), in assay [1] (antibody 6501), in assay [1] (antibody 6632), in assay [1] (antibody 6644), in assay [1] (antibody 6701) and in assay [1] (antibody 7008) was 4 throughout. In addition, the Micropan score in the assay with rabbit anti-human β2GPI (1st column), in the assay with rabbit anti-human β2GPI (2nd column), with rabbit anti-human β2GPI (3rd column) and in the assay with rabbit anti-human β2GPI (4th column) was 4 throughout.

B6: 3B4: phage clone, domain 1 mutant S38T (protein)
chain: GRTCPKPDDLPFSTVVPLKTFYEPGEEITYSCKPGYVTRGGMRKFICPLTGLWPINTLKCTPRV
For B6, the Micropan score in assay [1] (antibody 6226) came to 2; in assay [1] (antibody 6501), 3; in assay [1] (antibody 6632), 2; in assay [1] (antibody 6644), 3; in assay [1] (antibody 6701), 2; in assay [1] (antibody 7008) it was 2. The Micropan score with rabbit anti-human β2GPI (5th column) came to 4.

Source of the values: patent US6858210B1, “Therapeutic and diagnostic domain 1 β2GPI polypeptides and methods of using same” (La Jolla Pharmaceutical Co., priority 1998, dated 2005).
